Test results reported in the supplement of paper PMC11502859.

Test system: HEK293T
Experiment: median enrichment of reporter reads in eGFP-reduced (low/intermediate) vs eGFP-high sorted cells (eGFP-extension fusion abundance) (ratio); higher = stronger loss of eGFP-fusion protein abundance (more destabilising extension)
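Note: lentiviral eGFP-IRES-mCherry reporter pool sorted by FACS 96 h post-transduction, gated on mCherry-high cells, Illumina read counts normalized per million, median across four biological replicates.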

Row | Substance | median enrichment
1 | YDSNPDPGLIFQSPPSCGTASVC [NFKBID] | 4.34
2 | QTVEWLKLLSRRIYTSDLRRETLTPQWLHLL [HIST1H2BJ] | 10.5
3 | YKTPCSAILISYR [APOO] | 4.54
4 | WQQPQG [CCNB3] | 0.678
5 | YDVQRRLNKCTAE [VPS33A] | 0.744
6 | LLLPADLWIRSLLTGCVTLGPELPLSGPQRPYEGPLLQEHPHDIAFGGAPVACRIACGLCNLLRFKTDGHMCQWGSLSPGPKK [JAK3] | 5.04
7 | ELSF [ADHFE1] | 0.232
8 | QHLPEETPLPTLPERGSLRTGWRRWGPSRAPGALPGMSRPTHPKAGAAAPCCPSPGLGNDDPPKSPSAPQTQGLRPPAPGIRE [FXYD7] | 0.759
9 | YRNSNPGVPV [INPP1] | 0.415
10 | LGLLHLPPSYLVPCRAPGLFGGTLGCTSGLPAPAAWAPPS [REEP4] | 5.64
11 | KCSIYIYN [REC114] | 18.5
12 | ELSASARRASLPNQPWVPGSRLEPAINSLFLAPGSNGGPHLRTSGEAIAPSGEVMHFLSTYCLPGPRAHGEETWAHPCRKRDN [TSSK6] | 3.11
13 | YMFVWN [STKLD1] | 6.18
14 | DDDDDDDDDD [Asp10] | 0.433
15 | WSLKWRTCVFIISAKVLTSCAFPITSRSNYQLVWIFGPPFSHFGLPCSQNILNESIGIQKDSRQNERK [VCAN] | 11.9
16 | LLEWIYDVPLRRSISATILI [HMGCLL1] | 20.6
17 | SDRTCLRGRRTLAWAQESEAAFLLRGPSGESGPRYHARTLRGPVSCRRVSTFPPNPGLTALRSARRARAETRVGCGELKEPIK [UQCC3] | 3.65
18 | EYKLS [UBA6] | 0.363
19 | RRR [Arg03] | 0.663
20 | QLRTLPFFPLSSLPLPFLPIYPFPSSKSTQGEENKMTTQDLVAKILHSKSSFV [FGF12] | 4.18

Row | Substance | median enrichment
21 | WHRRTPGDFLYICRLRLFVTSKWDIV [TAF4] | 5.8
22 | YPILKVALFLLDLAELVAWGVGEIKRT [SPCS2] | 11.7
23 | CPSGPPLPLGQGNQLLRDFSCLEGAVIAPPHCPTVLLGL [FBXW4] | 12.6
24 | CCCCCC [Cys06] | 12.4
25 | QEATDRVSLVIRSQRFTI [ITM2A] | 15.6
26 | RHRRTPGDFLYICRLRLFVTSKWDIV [TAF4] | 12
27 | CGPGGSGRGWPHPHDHCPGGGGLLLLSF [BIK] | 10.6
28 | LKNCLEELY [EBF1] | 2.5
29 | YRLFVHYCFHFVPRVKQTTEKSNQVITYPSAGDFDY [ZBBX] | 10.1
30 | KCDKVQPSDLIIHKIIYT [ZNF679] | 15.1
31 | LVC [SYT16] | 1.2
32 | QVVHIYGIWYEILICVYNT [ZNF230] | 47.2
33 | QSIQQSLIRHAKI [SDHAF3] | 4.37
34 | ESYNHMQLWDRSLVLGTIHTHTPSLCLWLTSQKTLVNDHSRILTRIHVTDLTQ [CPAMD8] | 15.9
35 | REALHLNLFMS [ERI2] | 2.13
36 | YPHRGAGEGALDN [TMEM203] | 0.51
37 | QHTQNSLTRTISFCKGF [KRR1] | 1.62
38 | YKHESFIHTFRQAREVQQVTAKGGNCSHLPPILPAENPDCIQCPQCSHHFAPKVAEQHIPKCKTIKNCLPPLRKHYS [ZC2HC1C] | 0.72
39 | LPSESGGKTPPSLCILNH [UGT3A1] | 0.835
40 | RRAGGGWWPRRQHTTRLHTCMLSPRGNGLYIAHFTLFRRHFIPALVLLEGLSRQSSSCSASVCDSPPSTPMALSLGDSSSPRK [PRKAB1] | 5.36

Row | Substance | median enrichment
41 | RGPSETVYALTST [KDELR3] | 1.55
42 | GNWD [PIK3C3] | 0.441
43 | YRNSEVQPLENNIQEGHIDYKLMSCPICNSGS [FRRS1] | 25.3
44 | CGLLPLGPLTLSGWWTTKYNPVYNLKIYFTFVLLYLFIKG [SMAD4] | 2.65
45 | LGRTSALSDRTLRAMLPCHP [MRGPRX3] | 7.42
46 | AESLGSDLAAWGESLGSVLAAWGAGIAQSMNGPTPAKAESLGPVSPAAHGTGIAHGVRSVHLQGLRPWAQSALLLRVQALHMV [WNT9A] | 7.26
47 | QLFLKMAIVYEICISVSLYKF [NUP133] | 11.5
48 | SEVRACAMCETGKLGAQFEFFLFFFFLSTKNTLMVNTGQNQERMCSFQGLGQNL [GAB3] | 7.14
49 | QRRERCASILEGQQEAELFCLDSHHGPFAENCLGFQQLHICICEL [TAFA4] | 18.2
50 | YMKLDI [ARF4] | 1.7
51 | YQGPSQYPWRTREIAPYRQWRGVPSHRQEPEAQAAHPFQPSRTHTDGREGGHSMNYC [XYLT2] | 1.21
52 | WPLSPHPHLHPRTSLAIGAGPLQTLIPTPTEPLAQVPLVLPHSLAARCPGAHPCRAPKDGEVGGQELLSPTFHAPPLCI [GIT1] | 3.23
53 | QRLMQERCEGLRAGDCAILKPPLDLRTPRVGTSRVVGQPGSLYCGFSEA [MEIS3] | 6.79
54 | LFVKLCLIM [GPR112] | 13.7
55 | YSQTNTPYVSVNPCYLSRVCYFPSHRPNPWSPRGSHTTAITQCRGHA [HIP1] | 2.78
56 | WARSAVSSQWILVNWWRLADTLEKPKPESLLFSLFSCLCSVSLNTTFSAMVCG [MRFAP1] | 5.48
57 | WRGEGRPAVDSLILGRSLGCAAISFCECANTKLSRAKL [SLC25A25] | 6.74
58 | RVFLGIVFCSCFSVLGMGPGPDTPSPPLWPWPLKLQTQVPILFSPSNAPPNLQPPCLQLPGPGRALVPSLGLIFSLNSTDQLP [JUP] | 7.92
59 | SGWGWTNNQARAEGFMERPLGDPR [S1PR2] | 0.739
